# Data published in article PMC2756588.
# T1: Bbc1, P47068
# T1 sequence (P47068 1-78, looked up): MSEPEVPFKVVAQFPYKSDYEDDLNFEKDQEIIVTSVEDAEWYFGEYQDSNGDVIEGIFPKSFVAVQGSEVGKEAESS
# T2: Bzz1-1, P38822
# T2 sequence (P38822 478-572, looked up): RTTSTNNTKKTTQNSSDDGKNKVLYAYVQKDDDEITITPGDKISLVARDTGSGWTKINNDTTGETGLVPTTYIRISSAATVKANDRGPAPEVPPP
# T3: Pin3, Q06449
# T3 sequence (Q06449 53-122, looked up): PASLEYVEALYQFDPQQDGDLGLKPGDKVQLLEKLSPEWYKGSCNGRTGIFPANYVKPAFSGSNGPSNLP
# T4: Abp1, P15891
# T4 sequence (P15891 535-592, looked up): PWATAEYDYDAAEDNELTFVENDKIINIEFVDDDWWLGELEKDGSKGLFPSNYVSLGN
# T5: Sla1-3, P32790
# T5 sequence (P32790 344-424, looked up): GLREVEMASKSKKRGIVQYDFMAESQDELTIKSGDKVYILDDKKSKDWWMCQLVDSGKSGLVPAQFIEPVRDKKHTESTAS
# T6: Sla1-2, P32790
# T6 sequence (P32790 60-140, looked up): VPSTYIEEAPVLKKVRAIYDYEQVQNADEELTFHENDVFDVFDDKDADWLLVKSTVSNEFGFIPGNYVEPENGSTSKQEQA
# T7: Boi2, P39969
# T7 sequence (P39969 32-116, looked up): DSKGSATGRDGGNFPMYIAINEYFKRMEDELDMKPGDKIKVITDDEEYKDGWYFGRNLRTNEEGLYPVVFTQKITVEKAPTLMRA
# T8: Lsb3, P43603
# T8 sequence (P43603 385-451, looked up): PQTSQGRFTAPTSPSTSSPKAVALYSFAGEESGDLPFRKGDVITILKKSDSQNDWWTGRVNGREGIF
# T9: Cyk3, Q07533
# T9 sequence (Q07533 1-83, looked up): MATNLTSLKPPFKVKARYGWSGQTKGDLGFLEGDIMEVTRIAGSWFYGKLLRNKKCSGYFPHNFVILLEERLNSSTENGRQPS
# T10: Lsb1, P53281
# T10 sequence (P53281 45-122, looked up): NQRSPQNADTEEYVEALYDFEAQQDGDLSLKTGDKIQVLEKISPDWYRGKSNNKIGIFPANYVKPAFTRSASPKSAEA
# T11: Bud14, P27637
# T11 sequence (P27637 247-328, looked up): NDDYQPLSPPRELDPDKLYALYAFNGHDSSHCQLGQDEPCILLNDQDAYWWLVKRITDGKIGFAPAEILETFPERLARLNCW
# T12: Hse1, P38753
# T12 sequence (P38753 208-285, looked up): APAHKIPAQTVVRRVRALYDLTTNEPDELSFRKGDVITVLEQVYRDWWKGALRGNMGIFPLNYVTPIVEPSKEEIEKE
# T13: Fus1, P11710
# T13 sequence (P11710 432-512, looked up): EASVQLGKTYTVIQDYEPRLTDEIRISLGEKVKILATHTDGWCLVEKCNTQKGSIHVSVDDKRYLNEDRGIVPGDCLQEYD
# T14: Myo5, Q04439
# T14 sequence (Q04439 1072-1160, looked up): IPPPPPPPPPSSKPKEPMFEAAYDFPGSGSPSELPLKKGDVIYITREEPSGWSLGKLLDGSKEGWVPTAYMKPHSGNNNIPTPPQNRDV
# T15: Lsb4, P32793
# T15 sequence (P32793 402-468, looked up): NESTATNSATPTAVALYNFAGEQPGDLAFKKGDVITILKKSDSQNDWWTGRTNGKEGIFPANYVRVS
# T16: Pex13, P80667
# T16 sequence (P80667 295-386, looked up): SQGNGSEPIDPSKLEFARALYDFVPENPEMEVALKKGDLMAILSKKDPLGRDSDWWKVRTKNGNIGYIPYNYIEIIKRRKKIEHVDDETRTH
# T17: Boi1, P38041
# T17 sequence (P38041 1-86, looked up): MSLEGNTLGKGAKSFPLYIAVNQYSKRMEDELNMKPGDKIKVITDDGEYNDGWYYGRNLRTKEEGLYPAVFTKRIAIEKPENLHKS
# T18: Bzz1-2, P38822
# T18 sequence (P38822 568-633, looked up): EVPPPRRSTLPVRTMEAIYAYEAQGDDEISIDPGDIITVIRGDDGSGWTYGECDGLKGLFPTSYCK
# T19: Hof1, Q05080
# T19 sequence (Q05080 590-669, looked up): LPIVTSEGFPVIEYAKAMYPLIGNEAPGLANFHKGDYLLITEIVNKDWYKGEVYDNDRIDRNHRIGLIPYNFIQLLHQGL
# T20: Nbp2, Q12163
# T20 sequence (Q12163 103-180, looked up): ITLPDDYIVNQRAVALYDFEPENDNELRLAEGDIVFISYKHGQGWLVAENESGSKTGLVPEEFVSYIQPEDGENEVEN
# T21: Cdc25, P04821
# T21 sequence (P04821 50-136, looked up): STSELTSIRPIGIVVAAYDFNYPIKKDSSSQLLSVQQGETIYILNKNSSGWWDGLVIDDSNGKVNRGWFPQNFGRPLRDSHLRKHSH
# Target: GST
# Assay: SPOT array
# Conditions: median of control spots 978
row,SPOT intensity,Binder
1,0,PPIPIVPSSPAPPLP
2,0,HAPPLPPTAPPPPSL
3,0,VPKEPAPAPPPEPDM

# Target: T1, Bbc1, P47068
# Assay: SPOT array
# Conditions: median of control spots 796
row,SPOT intensity,Binder
1,0,PPIPIVPSSPAPPLP
2,0,HAPPLPPTAPPPPSL
3,0,VPKEPAPAPPPEPDM

# Target: T2, Bzz1-1, P38822
# Assay: SPOT array
# Conditions: median of control spots 4446
row,SPOT intensity,Binder
1,0,PPIPIVPSSPAPPLP
2,0,HAPPLPPTAPPPPSL
3,0,VPKEPAPAPPPEPDM

# Target: T3, Pin3, Q06449
# Assay: SPOT array
# Conditions: median of control spots 2171
row,SPOT intensity,Binder
1,0,PPIPIVPSSPAPPLP
2,0,HAPPLPPTAPPPPSL
3,17,VPKEPAPAPPPEPDM

# Target: T4, Abp1, P15891
# Assay: SPOT array
# Conditions: median of control spots 935
row,SPOT intensity,Binder
1,0,PPIPIVPSSPAPPLP
2,0,HAPPLPPTAPPPPSL
3,0,VPKEPAPAPPPEPDM

# Target: T5, Sla1-3, P32790
# Assay: SPOT array
# Conditions: median of control spots 5475
row,SPOT intensity,Binder
1,0,PPIPIVPSSPAPPLP
2,0,HAPPLPPTAPPPPSL
3,0,VPKEPAPAPPPEPDM

# Target: T6, Sla1-2, P32790
# Assay: SPOT array
# Conditions: median of control spots 712
row,SPOT intensity,Binder
1,0,PPIPIVPSSPAPPLP
2,0,HAPPLPPTAPPPPSL
3,0,VPKEPAPAPPPEPDM

# Target: T7, Boi2, P39969
# Assay: SPOT array
# Conditions: median of control spots 1161
row,SPOT intensity,Binder
1,0,PPIPIVPSSPAPPLP
2,0,HAPPLPPTAPPPPSL
3,0,VPKEPAPAPPPEPDM

# Target: Myo3, P36006
# Assay: SPOT array
# Conditions: median of control spots 468
row,SPOT intensity,Binder
1,425,PPIPIVPSSPAPPLP
2,465,HAPPLPPTAPPPPSL
3,149,VPKEPAPAPPPEPDM

# Target: T8, Lsb3, P43603
# Assay: SPOT array
# Conditions: median of control spots 406
row,SPOT intensity,Binder
1,0,PPIPIVPSSPAPPLP
2,0,HAPPLPPTAPPPPSL
3,0,VPKEPAPAPPPEPDM

# Target: Bem1-2, P29366
# Assay: SPOT array
# Conditions: median of control spots 4347
# Bem1-2, P29366, sequence (P29366 139-227): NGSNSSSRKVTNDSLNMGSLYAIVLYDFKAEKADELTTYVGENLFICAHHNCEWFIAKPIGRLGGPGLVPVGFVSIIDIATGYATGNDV
row,SPOT intensity,Binder
1,0,PPIPIVPSSPAPPLP
2,0,HAPPLPPTAPPPPSL
3,0,VPKEPAPAPPPEPDM

# Target: T9, Cyk3, Q07533
# Assay: SPOT array
# Conditions: median of control spots 1451
row,SPOT intensity,Binder
1,0,PPIPIVPSSPAPPLP
2,0,HAPPLPPTAPPPPSL
3,1,VPKEPAPAPPPEPDM

# Target: T10, Lsb1, P53281
# Assay: SPOT array
# Conditions: median of control spots 388
row,SPOT intensity,Binder
1,0,PPIPIVPSSPAPPLP
2,0,HAPPLPPTAPPPPSL
3,0,VPKEPAPAPPPEPDM

# Target: T11, Bud14, P27637
# Assay: SPOT array
# Conditions: median of control spots 956
row,SPOT intensity,Binder
1,0,PPIPIVPSSPAPPLP
2,0,HAPPLPPTAPPPPSL
3,0,VPKEPAPAPPPEPDM

# Target: T12, Hse1, P38753
# Assay: SPOT array
# Conditions: median of control spots 1727
row,SPOT intensity,Binder
1,0,PPIPIVPSSPAPPLP
2,0,HAPPLPPTAPPPPSL
3,3,VPKEPAPAPPPEPDM

# Target: T13, Fus1, P11710
# Assay: SPOT array
# Conditions: median of control spots 1200
row,SPOT intensity,Binder
1,0,PPIPIVPSSPAPPLP
2,0,HAPPLPPTAPPPPSL
3,1,VPKEPAPAPPPEPDM

# Target: T14, Myo5, Q04439
# Assay: SPOT array
# Conditions: median of control spots 471
row,SPOT intensity,Binder
1,318,PPIPIVPSSPAPPLP
2,279,HAPPLPPTAPPPPSL
3,93,VPKEPAPAPPPEPDM

# Target: Rvs167, P39743
# Assay: SPOT array
# Conditions: median of control spots 2707
# Rvs167, P39743, sequence (P39743 419-482): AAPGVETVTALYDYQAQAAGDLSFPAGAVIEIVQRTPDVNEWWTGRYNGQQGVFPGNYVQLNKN
row,SPOT intensity,Binder
1,0,PPIPIVPSSPAPPLP
2,0,HAPPLPPTAPPPPSL
3,0,VPKEPAPAPPPEPDM

# Target: T15, Lsb4, P32793
# Assay: SPOT array
# Conditions: median of control spots 397
row,SPOT intensity,Binder
1,0,PPIPIVPSSPAPPLP
2,0,HAPPLPPTAPPPPSL
3,0,VPKEPAPAPPPEPDM

# Target: T16, Pex13, P80667
# Assay: SPOT array
# Conditions: median of control spots 1341
row,SPOT intensity,Binder
1,0,PPIPIVPSSPAPPLP
2,0,HAPPLPPTAPPPPSL
3,4,VPKEPAPAPPPEPDM

# Target: Bem1-1, P29366
# Assay: SPOT array
# Conditions: median of control spots 4282
# Bem1-1, P29366, sequence (P29366 55-141): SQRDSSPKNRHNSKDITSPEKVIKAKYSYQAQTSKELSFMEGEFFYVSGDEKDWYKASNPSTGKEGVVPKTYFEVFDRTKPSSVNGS
row,SPOT intensity,Binder
1,0,PPIPIVPSSPAPPLP
2,0,HAPPLPPTAPPPPSL
3,0,VPKEPAPAPPPEPDM

# Target: T17, Boi1, P38041
# Assay: SPOT array
# Conditions: median of control spots 1162
row,SPOT intensity,Binder
1,0,PPIPIVPSSPAPPLP
2,0,HAPPLPPTAPPPPSL
3,0,VPKEPAPAPPPEPDM

# Target: Sho1, P40073
# Assay: SPOT array
# Conditions: median of control spots 1148
# Sho1, P40073, sequence (P40073 287-367): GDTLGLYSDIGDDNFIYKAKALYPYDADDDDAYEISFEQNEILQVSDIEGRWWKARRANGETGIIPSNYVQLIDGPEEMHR
row,SPOT intensity,Binder
1,0,PPIPIVPSSPAPPLP
2,0,HAPPLPPTAPPPPSL
3,0,VPKEPAPAPPPEPDM

# Target: T18, Bzz1-2, P38822
# Assay: SPOT array
# Conditions: median of control spots 4538
row,SPOT intensity,Binder
1,0,PPIPIVPSSPAPPLP
2,0,HAPPLPPTAPPPPSL
3,0,VPKEPAPAPPPEPDM

# Target: T19, Hof1, Q05080
# Assay: SPOT array
# Conditions: median of control spots 4086
row,SPOT intensity,Binder
1,0,PPIPIVPSSPAPPLP
2,11,HAPPLPPTAPPPPSL
3,0,VPKEPAPAPPPEPDM

# Target: T20, Nbp2, Q12163
# Assay: SPOT array
# Conditions: median of control spots 357
row,SPOT intensity,Binder
1,0,PPIPIVPSSPAPPLP
2,0,HAPPLPPTAPPPPSL
3,0,VPKEPAPAPPPEPDM

# Target: T21, Cdc25, P04821
# Assay: SPOT array
# Conditions: median of control spots 969
row,SPOT intensity,Binder
1,0,PPIPIVPSSPAPPLP
2,0,HAPPLPPTAPPPPSL
3,0,VPKEPAPAPPPEPDM
